Reference: the supplement of paper PMC10065799, “High-throughput profiling of sequence recognition by tyrosine kinases and SH2 domains using bacterial peptide display” (eLife, 2023)

Legend:
Grb2 SH2 = Grb2 SH2 (UniProt P62993); assay: SH2 binding enrichment of the phosphorylated peptide, bacterial display (enrichment ratio); higher = better substrate or ligand; peptides without Tyr show the background
c-Src SH2 = assay: as above
SHP2-C SH2 = assay: as above
Fes = Fes (UniProt P07332); assay: phosphorylation enrichment, bacterial display (enrichment ratio); higher = better substrate or ligand; peptides without Tyr show the background
Fes, sequence (P07332 whole entry, looked up): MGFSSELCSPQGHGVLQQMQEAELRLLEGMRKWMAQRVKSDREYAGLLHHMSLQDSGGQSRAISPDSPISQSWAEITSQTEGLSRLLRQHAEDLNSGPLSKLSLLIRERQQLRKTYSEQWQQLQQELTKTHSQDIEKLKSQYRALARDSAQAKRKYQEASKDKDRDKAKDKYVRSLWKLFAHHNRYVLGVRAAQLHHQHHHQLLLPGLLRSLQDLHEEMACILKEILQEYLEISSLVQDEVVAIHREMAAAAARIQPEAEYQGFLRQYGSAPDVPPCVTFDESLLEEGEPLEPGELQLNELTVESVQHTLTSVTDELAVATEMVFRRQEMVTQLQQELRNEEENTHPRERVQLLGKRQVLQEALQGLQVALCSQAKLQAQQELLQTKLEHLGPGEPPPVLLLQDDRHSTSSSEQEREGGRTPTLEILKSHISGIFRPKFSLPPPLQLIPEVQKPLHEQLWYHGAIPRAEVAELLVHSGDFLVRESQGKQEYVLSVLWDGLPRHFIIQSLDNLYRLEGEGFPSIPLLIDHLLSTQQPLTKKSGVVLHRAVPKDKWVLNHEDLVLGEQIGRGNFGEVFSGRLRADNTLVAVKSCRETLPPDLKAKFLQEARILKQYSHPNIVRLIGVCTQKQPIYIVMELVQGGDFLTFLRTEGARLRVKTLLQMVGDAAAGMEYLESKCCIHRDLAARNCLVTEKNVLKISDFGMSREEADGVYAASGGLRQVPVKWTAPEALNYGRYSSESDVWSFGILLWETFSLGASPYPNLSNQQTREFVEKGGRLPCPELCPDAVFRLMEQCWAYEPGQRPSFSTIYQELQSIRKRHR

Fyn = Fyn (UniProt P06241); assay: as above
Fyn, sequence (P06241 whole entry, looked up): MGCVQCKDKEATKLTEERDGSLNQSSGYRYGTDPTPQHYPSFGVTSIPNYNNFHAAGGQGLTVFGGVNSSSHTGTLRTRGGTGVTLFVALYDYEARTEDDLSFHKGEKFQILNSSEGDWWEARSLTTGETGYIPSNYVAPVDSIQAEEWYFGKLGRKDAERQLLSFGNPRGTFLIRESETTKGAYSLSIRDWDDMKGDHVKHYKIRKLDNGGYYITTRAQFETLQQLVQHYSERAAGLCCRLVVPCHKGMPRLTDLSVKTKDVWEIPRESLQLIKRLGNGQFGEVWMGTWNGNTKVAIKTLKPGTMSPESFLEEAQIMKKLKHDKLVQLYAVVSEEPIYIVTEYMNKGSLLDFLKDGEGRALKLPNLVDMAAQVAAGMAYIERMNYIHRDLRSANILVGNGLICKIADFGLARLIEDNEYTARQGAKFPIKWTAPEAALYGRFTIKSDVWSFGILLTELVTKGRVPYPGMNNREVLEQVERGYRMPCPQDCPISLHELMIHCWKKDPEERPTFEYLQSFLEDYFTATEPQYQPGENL

EPHB1 = EPHB1 (UniProt P54762); assay: as above
EPHB1, sequence (P54762 whole entry, looked up): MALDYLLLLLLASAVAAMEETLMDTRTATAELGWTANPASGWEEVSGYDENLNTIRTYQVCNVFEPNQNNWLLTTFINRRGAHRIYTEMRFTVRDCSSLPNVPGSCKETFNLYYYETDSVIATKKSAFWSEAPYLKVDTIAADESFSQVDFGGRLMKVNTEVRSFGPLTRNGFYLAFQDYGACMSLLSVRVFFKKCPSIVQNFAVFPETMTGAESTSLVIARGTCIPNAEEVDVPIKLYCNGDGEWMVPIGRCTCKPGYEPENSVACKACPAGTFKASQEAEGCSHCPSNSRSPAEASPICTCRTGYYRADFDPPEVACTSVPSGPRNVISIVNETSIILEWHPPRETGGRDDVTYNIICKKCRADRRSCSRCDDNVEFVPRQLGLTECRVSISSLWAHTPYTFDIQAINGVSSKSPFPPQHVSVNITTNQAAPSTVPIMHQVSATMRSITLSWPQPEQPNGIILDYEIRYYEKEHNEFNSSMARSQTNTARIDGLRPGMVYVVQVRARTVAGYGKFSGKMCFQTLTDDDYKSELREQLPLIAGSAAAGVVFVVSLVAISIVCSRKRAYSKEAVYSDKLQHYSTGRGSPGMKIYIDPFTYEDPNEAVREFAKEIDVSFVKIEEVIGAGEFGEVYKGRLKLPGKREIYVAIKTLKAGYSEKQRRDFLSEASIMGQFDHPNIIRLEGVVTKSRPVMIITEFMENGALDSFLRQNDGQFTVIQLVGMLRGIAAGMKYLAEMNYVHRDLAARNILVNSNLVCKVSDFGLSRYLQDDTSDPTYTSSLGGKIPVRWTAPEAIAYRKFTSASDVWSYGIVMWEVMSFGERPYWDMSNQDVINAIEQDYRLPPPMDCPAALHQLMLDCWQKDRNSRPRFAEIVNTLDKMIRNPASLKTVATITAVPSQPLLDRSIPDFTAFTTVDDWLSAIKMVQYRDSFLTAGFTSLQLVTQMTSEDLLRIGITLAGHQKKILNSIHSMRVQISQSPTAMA

c-Abl (mouse) = assay: as above
Fer (mouse) = assay: as above
Jak2 = Jak2 (UniProt O60674); assay: as above
Jak2, sequence (O60674 whole entry, looked up): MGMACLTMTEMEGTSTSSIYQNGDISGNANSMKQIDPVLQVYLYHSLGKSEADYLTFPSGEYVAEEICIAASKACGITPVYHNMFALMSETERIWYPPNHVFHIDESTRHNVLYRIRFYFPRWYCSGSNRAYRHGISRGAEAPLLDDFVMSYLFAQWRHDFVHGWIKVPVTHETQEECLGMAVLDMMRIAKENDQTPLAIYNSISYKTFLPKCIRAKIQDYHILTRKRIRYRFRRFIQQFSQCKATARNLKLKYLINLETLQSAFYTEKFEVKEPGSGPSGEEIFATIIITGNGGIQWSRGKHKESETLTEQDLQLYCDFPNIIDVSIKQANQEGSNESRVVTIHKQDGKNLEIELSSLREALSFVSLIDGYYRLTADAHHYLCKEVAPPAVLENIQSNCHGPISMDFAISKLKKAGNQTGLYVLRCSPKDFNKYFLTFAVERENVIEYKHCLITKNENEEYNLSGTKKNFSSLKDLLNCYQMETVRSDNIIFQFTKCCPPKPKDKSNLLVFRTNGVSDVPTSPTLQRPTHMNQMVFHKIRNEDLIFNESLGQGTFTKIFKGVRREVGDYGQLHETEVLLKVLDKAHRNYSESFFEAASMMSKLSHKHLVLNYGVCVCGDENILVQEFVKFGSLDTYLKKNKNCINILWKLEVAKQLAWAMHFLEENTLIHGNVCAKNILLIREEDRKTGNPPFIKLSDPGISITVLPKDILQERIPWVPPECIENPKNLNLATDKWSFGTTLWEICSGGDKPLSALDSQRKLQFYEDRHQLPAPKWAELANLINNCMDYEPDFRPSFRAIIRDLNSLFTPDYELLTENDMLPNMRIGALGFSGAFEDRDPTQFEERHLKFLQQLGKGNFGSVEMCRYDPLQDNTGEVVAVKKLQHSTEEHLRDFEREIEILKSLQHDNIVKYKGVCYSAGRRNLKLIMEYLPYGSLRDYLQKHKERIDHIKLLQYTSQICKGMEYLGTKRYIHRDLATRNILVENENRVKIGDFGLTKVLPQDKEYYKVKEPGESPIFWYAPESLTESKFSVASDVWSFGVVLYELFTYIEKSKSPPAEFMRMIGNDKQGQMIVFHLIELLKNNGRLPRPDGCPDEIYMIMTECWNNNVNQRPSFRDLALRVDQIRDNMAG

AncSZ = assay: as above
FGFR3 = FGFR3 (UniProt P22607); assay: as above
FGFR1 = FGFR1 (UniProt P11362); assay: as above
EPHB2 = EPHB2 (UniProt P29323); assay: as above
EPHB2, sequence (P29323 whole entry, looked up): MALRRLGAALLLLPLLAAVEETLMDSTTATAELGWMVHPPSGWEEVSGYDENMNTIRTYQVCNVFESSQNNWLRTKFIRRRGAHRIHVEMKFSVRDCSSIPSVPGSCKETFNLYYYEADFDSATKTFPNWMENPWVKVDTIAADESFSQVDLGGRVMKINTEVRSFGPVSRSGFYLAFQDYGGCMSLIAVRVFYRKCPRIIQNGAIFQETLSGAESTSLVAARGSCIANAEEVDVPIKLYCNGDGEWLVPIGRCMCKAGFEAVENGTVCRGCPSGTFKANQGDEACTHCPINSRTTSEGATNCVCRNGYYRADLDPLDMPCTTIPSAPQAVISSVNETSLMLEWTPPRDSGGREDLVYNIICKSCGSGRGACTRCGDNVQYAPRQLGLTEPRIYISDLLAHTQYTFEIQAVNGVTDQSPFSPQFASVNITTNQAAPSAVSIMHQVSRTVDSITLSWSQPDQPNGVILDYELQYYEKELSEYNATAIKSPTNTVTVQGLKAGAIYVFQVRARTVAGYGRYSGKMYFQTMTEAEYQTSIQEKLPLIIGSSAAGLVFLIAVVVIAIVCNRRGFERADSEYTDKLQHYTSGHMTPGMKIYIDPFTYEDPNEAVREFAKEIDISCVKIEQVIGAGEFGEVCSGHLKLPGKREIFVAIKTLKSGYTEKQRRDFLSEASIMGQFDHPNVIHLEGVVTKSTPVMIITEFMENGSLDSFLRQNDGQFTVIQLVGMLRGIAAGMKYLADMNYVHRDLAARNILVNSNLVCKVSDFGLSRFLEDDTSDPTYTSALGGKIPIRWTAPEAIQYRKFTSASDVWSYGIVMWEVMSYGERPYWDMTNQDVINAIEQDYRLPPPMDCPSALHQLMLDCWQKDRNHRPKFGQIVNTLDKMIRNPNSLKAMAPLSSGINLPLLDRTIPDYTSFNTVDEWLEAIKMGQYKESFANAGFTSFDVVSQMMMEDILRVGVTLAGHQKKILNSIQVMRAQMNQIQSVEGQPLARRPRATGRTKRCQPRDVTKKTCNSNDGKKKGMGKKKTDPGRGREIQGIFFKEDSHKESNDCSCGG

Hck = Hck (UniProt P08631); assay: as above
Hck, sequence (P08631 whole entry, looked up): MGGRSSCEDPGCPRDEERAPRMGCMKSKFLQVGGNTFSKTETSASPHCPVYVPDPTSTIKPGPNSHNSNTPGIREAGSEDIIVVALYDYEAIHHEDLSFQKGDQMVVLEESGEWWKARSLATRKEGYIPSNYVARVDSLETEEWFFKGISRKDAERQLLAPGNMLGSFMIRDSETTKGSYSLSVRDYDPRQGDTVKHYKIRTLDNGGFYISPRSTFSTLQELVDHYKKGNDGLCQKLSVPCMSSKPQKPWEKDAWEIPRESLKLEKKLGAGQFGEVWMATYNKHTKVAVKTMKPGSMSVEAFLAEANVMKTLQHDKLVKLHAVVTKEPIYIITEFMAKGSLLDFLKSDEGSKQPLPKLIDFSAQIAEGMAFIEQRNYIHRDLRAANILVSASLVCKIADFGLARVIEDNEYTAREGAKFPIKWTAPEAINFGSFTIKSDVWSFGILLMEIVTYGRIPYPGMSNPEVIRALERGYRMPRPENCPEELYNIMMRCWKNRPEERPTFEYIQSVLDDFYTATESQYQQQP

MERTK = MERTK (UniProt Q12866); assay: as above
c-Src = assay: as above
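For SH2 binding enrichment of the phosphorylated peptide, bacterial display in this document: peptide library displayed on the E. coli surface as eCPX fusions, selected cells deep-sequenced, score is each peptide's frequency after selection divided by its frequency in the input.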
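For phosphorylation enrichment, bacterial display in this document: 11-residue human phosphosite peptides and single-mutation variants displayed on the E. coli surface, counted by deep sequencing, each peptide's frequency after selection divided by its frequency in the unselected input library; frequency after pTyr selection over input frequency; kinase dosed for 20-30% of maximal phosphorylation in three min.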

| Sequence | SH2 binding enrichment (Grb2 SH2) | SH2 binding enrichment (c-Src SH2) | SH2 binding enrichment (SHP2-C SH2) | phosphorylation enrichment (Fes) | phosphorylation enrichment (Fyn) | phosphorylation enrichment (EPHB1) | phosphorylation enrichment (c-Abl (mouse)) | phosphorylation enrichment (Fer (mouse)) | phosphorylation enrichment (Jak2) | phosphorylation enrichment (AncSZ) | phosphorylation enrichment (FGFR3) | phosphorylation enrichment (FGFR1) | phosphorylation enrichment (EPHB2) | phosphorylation enrichment (Hck) | phosphorylation enrichment (MERTK) | phosphorylation enrichment (c-Src) |
| --- | --- | --- | --- | --- | --- | --- | --- | --- | --- | --- | --- | --- | --- | --- | --- | --- |
| GIYKDYYRYNF [PLA2G2D_Y85_S80G] | 1.13 | 1.03 | 1.31 | 0.805 | 5 | 5.44 | 5.76 | 0.938 | 7.91 | 1.4 | 9.59 | 12.2 | 5.13 | 3.32 | 4.72 | 4.78 |
| STGRSYAGVAV [KLHL3_Y577] | 0.878 | 0.476 | 0.837 | 0.466 | 0.345 | 0.25 | 0.361 | 0.31 | 0.389 | 0.43 | 0.389 | 0.482 | 0.3 | 0.315 | 0.318 | 0.302 |
| HYEDGYPGGSD [CTNND1_Y221] | 0.915 | 0.924 | 0.786 | 1.28 | 0.799 | 0.796 | 1.12 | 0.908 | 1.44 | 1.75 | 0.945 | 0.819 | 0.762 | 0.629 | 0.852 | 1.13 |
| TCFDKYTGNTF [FN1_Y101_YF] | 0.625 | 0.412 | 0.98 | 1.18 | 0.563 | 0.813 | 0.93 | 0.647 | 1.16 | 1.35 | 0.92 | 0.508 | 0.772 | 0.567 | 0.501 | 0.544 |
| WISNRYPDFSS [PRPH2_Y184_L185P] | 0.964 | 0.5 | 0.71 | 0.953 | 0.404 | 0.434 | 0.66 | 0.484 | 0.841 | 0.798 | 0.685 | 0.533 | 0.552 | 0.497 | 0.487 | 0.52 |
| PVQAPYQKVVA [HBB_Y131_A130P] | 0.8 | 0.561 | 1.3 | 0.94 | 0.539 | 0.543 | 0.732 | 0.381 | 0.687 | 0.744 | 0.429 | 0.436 | 0.691 | 0.687 | 0.691 | 0.563 |
| AGIKAYQSCLQ [ADGRA2_Y377_T375K] | 0.767 | 0.57 | 0.64 | 0.983 | 0.383 | 0.583 | 0.85 | 0.424 | 0.841 | 0.786 | 0.572 | 0.453 | 0.55 | 0.537 | 0.558 | 0.55 |
| KVNKIYFPDFI [LIG3_Y767_YF] | 0.946 | 0.692 | 0.844 | 0.855 | 0.455 | 0.427 | 0.566 | 0.4 | 0.712 | 0.799 | 1.26 | 1.24 | 0.399 | 0.543 | 0.473 | 0.478 |
| SAGSSYSISVI [PAX5_Y179_G183V] | 0.856 | 0.62 | 0.686 | 0.975 | 0.688 | 0.553 | 0.807 | 0.572 | 0.835 | 0.986 | 0.752 | 0.485 | 0.712 | 0.539 | 0.472 | 0.48 |

Further lines, with some results ahead:

| SH2 binding enrichment (Grb2 SH2) | SH2 binding enrichment (c-Src SH2) | SH2 binding enrichment (SHP2-C SH2) | Sequence | phosphorylation enrichment (Fes) | phosphorylation enrichment (Fyn) | phosphorylation enrichment (EPHB1) | phosphorylation enrichment (c-Abl (mouse)) | phosphorylation enrichment (Fer (mouse)) | phosphorylation enrichment (Jak2) | phosphorylation enrichment (AncSZ) | phosphorylation enrichment (FGFR3) | phosphorylation enrichment (FGFR1) | phosphorylation enrichment (EPHB2) | phosphorylation enrichment (Hck) | phosphorylation enrichment (MERTK) | phosphorylation enrichment (c-Src) |
| --- | --- | --- | --- | --- | --- | --- | --- | --- | --- | --- | --- | --- | --- | --- | --- | --- |
| 0.874 | 0.44 | 0.578 | DTMQTYNGNDE [TSPAN7_Y131_A127T] | 1.17 | 0.491 | 0.589 | 0.758 | 0.557 | 0.976 | 0.976 | 0.817 | 0.695 | 0.632 | 0.642 | 0.382 | 0.502 |
| 2.18 | 0.718 | 0.676 | TVHCDYLNIPH [TAF1L_Y1385] | 1.02 | 0.464 | 3.02 | 0.521 | 0.46 | 0.941 | 0.959 | 3.97 | 6.63 | 0.706 | 0.55 | 0.442 | 0.718 |
| 1.37 | 1.31 | 1.26 | LLILEYAKYGS [RET_Y806_V804L] | 1.27 | 0.587 | 0.773 | 1.02 | 0.58 | 1.5 | 1.32 | 0.869 | 0.547 | 0.649 | 0.486 | 0.392 | 0.764 |
| 2.26 | 1.51 | 1.84 | FLLRVYSIFSK [SGCE_Y38_T36R] | 1.02 | 0.437 | 0.321 | 0.987 | 0.433 | 0.804 | 0.886 | 1.28 | 0.574 | 0.402 | 0.504 | 0.634 | 1.49 |
| 0.759 | 1.17 | 0.421 | RSYSPCDYQPC [TNS1_Y796_Y796C] | 0.935 | 0.554 | 17.1 | 0.457 | 0.544 | 0.533 | 1.12 | 1.28 | 2.76 | 8.45 | 0.777 | 0.726 | 1.56 |
| 0.879 | 0.376 | 0.611 | EFGSGYPNDPK [RNASEH2A_Y210_D205E_YF] | 0.875 | 0.441 | 0.562 | 0.79 | 0.41 | 0.797 | 0.884 | 0.594 | 0.406 | 0.51 | 0.503 | 0.653 | 0.539 |
| 1.42 | 0.693 | 0.8 | FADPFYDFEIE [ZC3H18_Y372_YF] | 1.19 | 3.26 | 0.785 | 0.817 | 0.752 | 1.12 | 1.36 | 0.708 | 0.57 | 0.687 | 0.674 | 0.555 | 3.4 |
